Laboratory results reported in US12186353B2, “Method of reducing neuronal microtubule binding protein Tau (Tau) levels” (ADAERATA, LIMITED PARTNERSHIP, priority 2018, dated 2025).

Test system: primary RGC neuron cultures
Test: Axonal blebs, neurite length and branching in transfected primary RGC neuron cultures of AD and tauopathy mice
Type: cell-based, mouse
Settings: for number of axonal blebs: plasmid transfection, two weeks later, vs GFP
Procedure: FIGS. 10A-H: Numb72 reduces blebbing in AD mouse model RGCs. FIG. 10A. Primary retinal cultures were performed at P8 and cells were transfected using an Amaxa™ electroporator and analysed 14 days later. Cells GFP and NF165 positive were analysed in B6129J mouse line (Control) and triple transgenic mice (3×TGAD) expressing three mutations associated with familial Alzheimer's disease (APP Swedish, MAPT P301L, and PSEN1 M146V) after transfection of GFP or Numb-72 IRES::GFP. […] FIGS. 10B-D. Quantification of relative number of axonal blebs (FIG. 10B); axon (neurites) length (FIG. 10C) and branching number (FIG. 10D) in Control (B6129J) and 3×TGAD RGC axons was performed. Control numbers were normalized to 1. Error bars represent SEM, ** p≤0.001; n.s. non-significant; Anova 2 way for blebs and Student's t test for length and branching. FIG. 10E Primary retinal culture was performed at P8 and cells were transfected using an Amaxa™ electroporator and analysed 14 days later. Cells GFP and NF165 positive were analysed in C57b6 mouse line (Control) and P301S Tau mutant (TauP301S) (model of tauopathy) after transfection of GFP or Numb-72 IRES::GFP. […] FIGS. 10F-H. Quantification of relative number of axonal blebs (FIG. 10F); axon (neurites) length (FIG. 10G) and branching number (FIG. 7H) in Control (C57b6) (Control, FIGS. 10F-H) and TauP301S (FIGS. 10F-H) RGC axons was performed. Control numbers were normalized to 1. Error bars represent SEM, * p≤0.05; n.s. non-significant Anova 2 way for blebs and Student's t test for length and branching.
Retinal tissues were isolated from eyeballs of postnatal day 7 (P7) mice, cut in small pieces and incubated in PBS containing 5 mg/ml of papain, 0.24 mg/ml of L-cysteine, 0.5 mmol/l of EDTA, and 10 U/ml of DNase I for 2×3 min. The reaction was stopped by adding Lo-Ovo solution in PBS, and 10 U/ml of DNase I. The retinal cells were mechanically dissociated by gentle pipetting and collected as a suspension. Procedures were conducted at room temperature in a laminar flow hood. After centrifugation at 1000 rpm for 11 min, cells were resuspended in RGCs media and plate on glass coverslips at 50′000 cells/coverslips on a 24 wells plate and incubated at 37° C.; 8% CO2 for 2 weeks, half media was changed every 3 days. […]
To determine the neuroprotective effects of Numb-72, the inventors prepared primary RGC neuron cultures from control mice, triple transgenic mice (3×TGAD) expressing three mutations associated with familial Alzheimer's disease (APP Swedish, MAPT P301L, and PSEN1 M146V), or a P301S Tau mutant (model of tauopathy), and then expressed GFP or Numb-72 in these neurons by plasmid transfection. Two weeks later, the length of neurites, the number of branches, and the number of axonal blebs were counted.

[1] = control, 3xTGAD and P301S RGC neurons, two weeks after transfection

B1: Numb-72: 72 kDa Numb isoform with long PTB domain and long PRR; human isoform 1 (SEQ ID NO: 1); expressed by transfection (protein)
chain: MNKLRQSFRRKKDVYVPEASRPHQWQTDEEGVRTGKCSFPVKYLGHVEVDESRGMHICEDAVKRLKAERKFFKGFFGKTGKKAVKAVLWVSADGLRVVDEKTKDLIVDQTIEKVSFCAPDRNFDRAFSYICRDGTTRRWICHCFMAVKDTGERLSHAVGCAFAACLERKQKREKECGVTATFDASRTTFTREGSFRVTTATEQAEREEIMKQMQDAKKAETDKIVVGSSVAPGNTAPSPSSPTSPTSDATTSLEMNNPHAIPRRHAPIEQLARQGSFRGFPALSQKMSPFKRQLSLRINELPSTMQRKTDFPIKNAVPEVEGEAESISSLCSQITNAFSTPEDPFSSAPMTKPVTVVAPQSPTFQANGTDSAFHVLAKPAHTALAPVAMPVRETNPWAHAPDAANKEIAATCSGTEWGQSSGAASPGLFQAGHRRTPSEADRWLEEVSKSVRAQQPQASAAPLQPVLQPPPPTAISQPASPFQGNAFLTSQPVPVGVVPALQPAFVPAQSYPVANGMPYPAPNVPVVGITPSQMVANVFGTAGHPQAAHPHQSPSLVRQQTFPHYEASSATTSPFFKPPAQHLNGSAAFNGVDDGRLASADRHTEVPTGTCPVDPFEAQWAALENKSKQRTNPSPTNPFSSDLQKTFEIEL
modifications: homo sapiens
notes: 72 kDa Numb isoform with long PTB domain and long PRR; expressed by transfection
number of axonal blebs (3xTGAD RGC neurons): reduced back to control levels | number of axonal blebs (P301S Tau mutant RGC neurons): reduced back to control levels | neurite length [1]: not changed in any condition | number of branches [1]: not changed in any condition
